Assays:
Type in all cases: biochemical, Mycoplana bullata
[1] = substrate: CC(=O)NCCCNCCCCN; assay: Enzyme activity on acetylpolyamine substrates, partially purified product (substrate specificity, optimum pH/temperature, Km); settings: other: pH 7.0, Lineweaver-Burk plot
Description: (§1) Activity of the present enzyme (partially purified products) is measured according to the following procedure. That is, 0.1 ml of an enzyme solution is added to a reagent solution consisting of 1.5 ml of 0.1 M phosphate buffer (pH 7.0), 0.05 ml of 50 mM acetylpolyamine, 0.4 U of putrescine oxidase (when acetylputrescine, acetylcadaverine or acetylspermidine is used as substrate) or polyamine oxidase (when acetylspermidine or acetylspermine is used as substrate), 0.5 ml of 2.4 mM 4-aminoantipyrine, 0.5 ml of 42 mM phenol and 20 U of peroxidase. The mixture is incubated at 37° C., and the absorbance of quinoneimine pigment formed at 500 nm is measured.
(§2) In terms of the enzyme activity, the amount of enzyme that can hydrolyze 1 μmole of a substrate in one minute is defined as one unit (1 U).
(§3) The relative activities of acetylpolyamine amidohydrolases against various type of acetylpolyamine, defining the activities against acetylputrescine as 100 under a condition of pH 7.0, are as shown in Table 1 below.
(§4) Enzyme activity was measured at different pH levels ranging from 6 to 10 by using bis-Tris propane buffer solutions. The optimum pH was 9 for acetylputrescine and acetylcadaverine, and 8 for N^1 -acetylspermidine, N^8 -acetylspermidine and acetylspermine, as shown in FIG. 1.
(§5) The optimum working temperature for the present enzyme was about 50° C., when the relative activity was determined, using acetylputrescine as substrate, as shown in FIG. 4. The optimum temperatures for the other acetylpolyamine amidohydrolases were 30° to 40° C. This clearly distinguishes the present enzyme from the known enzymes.
(§6) Km values of the present enzyme and the other known enzymes for various types of acetylpolyamine at pH 7.0 were determined from the Line weaver-Burk plot [refer to J. Am. Chem. Soc., 56, 658 (1934)].

[2] = substrate: CC(=O)NCCCCCN; assay: as above; settings: other: pH 7.0, Lineweaver-Burk plot
Description: as §1, §2, §3, §4, §5, §6

[3] = substrate: CC(=O)NCCCCNCCCN; assay: as above; settings: other: pH 7.0, Lineweaver-Burk plot
Description: as §1, §2, §3, §4, §5, §6

[4] = substrate: CC(=O)NCCCNCCCCN; assay: Enzyme activity on acetylpolyamine substrates, product purified to homogeneity (Method 2 / Method 3); settings: other: pH 9.0, Lineweaver-Burk plot
Description: (§7) [Method 2] (Assay when acetylputrescine, acetylcadaverine, N^1 -acetylspermidine and N^8 -acetylspermidine are used as substrate:)
(§8) The acetylpolyamine can be hydrolyzed by the acetylpolyamine amidohydrolase, as described in [Method 1], and the corresponding free polyamine thus formed is then oxidized by putrescine oxidase. Putrescine oxidase derived from Micrococcus rubens is known to have an activity upon putrescine, cadaverine and spermidine [Adachi, et al., Agric. Biol. Chem, 30, 1202 (1966)]. […] The actual analytical procedure is as described below.
(§9) The above reagents, (b) through (h), were put in a cuvette (d: 1.0 cm) and the mixture was preincubated at 37° C. for 2 minutes. The substrate solution (a) was then added, and the resulting mixture was incubated at 37° C. Absorbance at 500 nm was measured over a period of 3 to 5 minutes, and the change in absorbance per minute (ΔODsample) was determined from the linear portion of the plotted curve. For control, the same procedure as above was carried out, using distilled water as reference.
(§10) One unit of acetylpolyamine amidohydrolase is defined as its amount necessary to hydrolyze 1 μmole of acetylputrescine at 37° C. for one minute (or the amount necessary to form 0.5 μmole of quinoneimine pigment formed in the method for measuring the enzyme activity described above).
(§11) [Method 3] (Assay when acetylspermine is used as substrate:)
(§12) Acetylspermine is hydrolyzed by the action of acetylpolyamine amidohydrolase into free form of spermine. The free form of spermine can be oxidized by a polyamine oxidase derived from Aspergillus terreus to produce hydrogen peroxide. […] Thus, the enzyme activity can be measured by quantitative determination of the hydrogen peroxide according to the method described above. […]
(§13) Reagents (b) through (d) given in item (1) were put in a test tube and the mixture was preincubated at 37° C. for 2 minutes. […] A sample solution (200 μl), taken from the eluate containing free form of spermine, was mixed in a cuvette with reagents (a) through (e) given in item (2) above, the mixture was incubated at 37° C. for 10 minutes, and the absorbance at 755 nm was measured. […]
(§14) The concentration of free form of spermine in the reaction mixture can be determined from a calibration curve previously prepared on the basis of aqueous soluitons of free form of spermine with different concentrations. […]
(§15) The activities upon acetylputrescine, acetylcadaverine, N^1 -acetylspermidine and N^8 -acetylspermidine were measured by [Method 2] in a phosphate buffer (pH 9.0) at a substrate concentration of 0.833 mM, and the activity upon acetyl-spermine was measured by [Method 3] under the same conditions. […] Km values, determined from the Lineweaver-Burk plot, are also listed in the same table. […]

[5] = substrate: CC(=O)NCCCCCN; assay: as above; settings: other: pH 9.0, Lineweaver-Burk plot
Description: as §7, §8, §9, §10, §11, §12, §13, §14, §15

[6] = substrate: CC(=O)NCCCCN; assay: as above; settings: other: pH 9.0, Lineweaver-Burk plot
Description: as §7, §8, §9, §10, §11, §12, §13, §14, §15

[7] = substrate: CC(=O)NCCCCNCCCN; assay: as above; settings: other: pH 9.0, Lineweaver-Burk plot
Description: as §7, §8, §9, §10, §11, §12, §13, §14, §15

Protein	Km [1] [µM]	Km [2] [µM]	Km [3] [µM]	Km [4] [µM]	Km [5] [µM]	Km [6] [µM]	Km [7] [µM]
acetylpolyamine amidohydrolase (the present enzyme, partially purified product) (Mycoplana ramosa) (protein, novel acetylpolyamine amidohydrolase of the present invention accumulated within the grown cells; made in house; host or cells: Mycoplana (natural producer; cells grown in culture)) MRVIFSEDHKLRNAKTELYGGELVPPFEAPFRAEWILAAVKEAGFDDVVAPARHGLETVLKVHDAGYLNFLETAWDRWKAAGYKGEAIATSFPVRRTSPRIPTDIEGQIGYYCNAAETAISPGTWEAALSSMASAIDGADLIAAGHKAAFSLCRPPGHHAGIDMFGGYCFINNAAVAAQRLLDKGAKKIAILDVDFHHGNGTQDIFYERGDVFFASLHGDPAEAFPHFLGYAEETGKGAGAGTTANYPMGRGTPYSVWGEALTDSLKRIAAFGAEAIVVSLGVDTFEQDPISFFKLTSPDYITMGRTIAASGVPLLVVMEGGYGVPEIGLNVANVLKGVAG	270	130	560	–	–	–	–
acetylpolyamine amidohydrolase (the present enzyme, product purified to homogeneity) (Mycoplana ramosa) (protein, novel acetylpolyamine amidohydrolase of the present invention accumulated within the grown cells; made in house; host or cells: Mycoplana (natural producer)) MRVIFSEDHKLRNAKTELYGGELVPPFEAPFRAEWILAAVKEAGFDDVVAPARHGLETVLKVHDAGYLNFLETAWDRWKAAGYKGEAIATSFPVRRTSPRIPTDIEGQIGYYCNAAETAISPGTWEAALSSMASAIDGADLIAAGHKAAFSLCRPPGHHAGIDMFGGYCFINNAAVAAQRLLDKGAKKIAILDVDFHHGNGTQDIFYERGDVFFASLHGDPAEAFPHFLGYAEETGKGAGAGTTANYPMGRGTPYSVWGEALTDSLKRIAAFGAEAIVVSLGVDTFEQDPISFFKLTSPDYITMGRTIAASGVPLLVVMEGGYGVPEIGLNVANVLKGVAG	–	–	–	130	50	220	310
